Data reported in FireProtDB (doi:10.1016/j.jmb.2005.05.056).
“And” between values parts separate entries of the source, which are not always exact repeats. Equal entries are not always repeated.

Details: Thermus thermophilus; pH 8; 25 °C; GdnHCl; Fluorescence; Tris-HCl 50 mM; reversible: No; whole UniProt chain shown

B1: Small ribosomal subunit protein bS6 wild type, P23370 (protein)
chain: MRRYEVNIVLNPNLDQSQLALEKEIIQRALENYGARVEKVEELGLRRLAYPIAKDPQGYFLWYQVEMPEDRVNDLARELRIRDNVRRVMVVKSQEPFLANA
- denaturant m value: 2.54 kcal/mol/M and 2.76 kcal/mol/M and 2.7 kcal/mol/M
